Data on 13 molecules can be found in patent EP2245064B1 (MEDIMMUNE LIMITED, dated 2014).

Substitutions are numbered along the chain they refer to. Read-outs that look alike come from different tables or passages of the source.

The target of test [1] is human IL-4Rα on TF-1 cells (human) (UniProt P24394). Description: cell-based or functional assay.
For test [2], the target named is T1, human IL4Rα/Fc (R and D Systems 604-4R) (human, UniProt P24394 26-232).
T1 construct: Bought product; also called human IL4Rα-Fc receptor; IL-4Rα/Fc (R&D systems Cat. No. 604-4R-050)
T1 sequence (looked up): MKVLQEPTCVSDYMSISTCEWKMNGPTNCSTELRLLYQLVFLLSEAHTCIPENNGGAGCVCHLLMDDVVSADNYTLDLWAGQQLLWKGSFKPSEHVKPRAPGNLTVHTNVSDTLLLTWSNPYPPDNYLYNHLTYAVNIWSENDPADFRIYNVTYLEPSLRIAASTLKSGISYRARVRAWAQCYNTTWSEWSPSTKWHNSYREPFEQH
Description: HTRF receptor-ligand competition, scFv vs biotinylated human IL4. Background: In TR-FRET formats the signal depends on donor and acceptor labels being close together.

In test [3] the target is antibody used for epitope mapping in Example 5 (not named). The experiment in a line: HTRF competition vs biotinylated human IL-4Rα/Fc for Eu-cryptate antibody.
Test [4] has the same target. The description is as above. The source holds these as a separate data set.

B1: Antibody 24 (PGL) IgG (antibody, from another filing, V domains shown)
VH: QVQLVQSGAEVKKPGASVKVSCKASGYAFTSYYMHWVRQAPGQGLEWMGIINPRGGSTSYAQKFQGRVTMTRDTSTSTVYMELSSLRSEDTAVYYCARGKYWMYDWGKGTLVTVSS
VL: QSVLTQPPSVSAAPGQKVTISCSGGSSNIGNSYVSWYQQLPGTAPKLLIYDNNKRPSGIPDRFSGSKSGTSATLGITGLQTGDEADYFCGTWDTSTVWEWPFGTGTKLTVL
In the case of B1, in test [1], the IC50, IL-4 induced TF-1 cell proliferation was 0.0153 nM and the IC50, IL-13 induced TF-1 cell proliferation was 0.055 nM.

B2: Antibody 1 scFv (scFv, V domains shown)
VH: B1 VH with V37A, R54S, Y101W, M103L, Y104D, D105Y
VL: B1 VL with G75A, F88Y, T96L, V97S, W98A, E99N, W100Y, P101V
As a reminder, the Ki is a dissociation constant, usually derived from enzyme kinetics or from competition with a known ligand. High values mean lower affinity, low ones higher affinity. For B2, the Ki in test [2] came out at 12 nM.

B3: MoLoop1HuIL-4Rα (receptor)
chain: MKVLQEPTCVSDYIRTSTCEWKMNGPTNCSTELRLLYQLVFLLSEAHTCIPENNGGAGCVCHLLMDDVVSADNYTLDLWAGQQLLWKGSFKPSEHVKPRAPGNLTVHTNVSDTLLLTWSNPYPPDNYLYNHLTYAVNIWSENDPADFRIYNVTYLEPSLRIAASTLKSGISYRARVRAWAQCYNTTWSEWSPSTKWHNSYREPFNPAFLYKVVGAADYKDDDDKAAHHHHHHHHHH
The term IC50 denotes the point on the concentration scale where inhibition reaches its midpoint. In test [3], B3 came in with an IC50 of 1.9 nM.

B4: EM25 (receptor)
chain: B3 chain with I14M, R15S, T16I, A46N, H47L
In the case of B4, the IC50 in test [3] was 0.448 nM.

B5: MoLoop5HuIL-4Rα (receptor)
chain: B3 chain with I14M, R15S, T16I, A180S, C182I, Y183L, N184T, T185G
B5 yielded an IC50 in test [3] of 1.4 nM.

B6: MoLoop3HuIL-4Rα (receptor)
chain: B3 chain with I14M, R15S, T16I, L64E, D66N, D67R, V68P, S70Q, A71S, N73R
One may read the % inhibition as how much of the control response was suppressed. Low readings indicate little suppression, high ones strong suppression. B6: the values for the % inhibition at 1000nM in test [4] and in test [3] were 45% and 58%, respectively.

B7: MoLoop4HuIL-4Rα (receptor)
chain: B3 chain with I14M, R15S, T16I, S119N, P121L, P124S, D125N
The molecule B7 had a 50% inhibitory concentration (IC50) in test [3] of 0.663 nM.

B8: EM20 (receptor)
chain: B3 chain with I14M, R15S, T16I, V40M, L42F, L43F, A46N, H47L
For the molecule B8, the IC50 in test [3] was 3.8 nM.

B9: EM19 (receptor)
chain: MKVLQEPTCVSDYMSISTCEWKMNGPTNCSTELRLLYQLMFLEFSENLTCIPENNGGAGCVCHLLMDDVVSADNYTLDLWAGQQLLWKGSFKPSEHVKPRAPGNLTVHTNVSDTLLLTWSNPYPPDNYLYNHLTYAVNIWSENDPADFRIYNVTYLEPSLRIAASTLKSGISYRARVRAWAQCYNTTWSEWSPSTKWHNSYREPFNPAFLYKVVGAADYKDDDDKAAHHHHHHHHHH
Molecule B9 showed an IC50 in test [3] of 4.5 nM.

B10: EM22 (receptor)
chain: B9 chain with L42F, N47A
Consider B10, for which, in test [3], the 50% inhibitory concentration (IC50) amounted to 19 nM.

B11: EM21 (receptor)
chain: B9 chain with L42F, F44L
B11: the IC50 in test [3] was 5.7 nM.

B12: EM24 (receptor)
chain: B9 chain with M40V, L42F, N47A, L48H
For B12, the IC50 in test [3] came out at 13 nM.

B13: MoD1HuD2IL-4Rα (receptor)
chain: IKVLGEPTCFSDYIRTSTCEWFLDSAVDCSSQLCLHYRLMFFEFSENLTCIPRNSASTVCVCHMEMNRPVQSDRYQMELWAEHRQLWQGSFSPSGHVKPRAPGNLTVHTNVSDTLLLTWSNPYPPDNYLYNHLTYAVNIWSENDPADFRIYNVTYLEPSLRIAASTLKSGISYRARVRAWAQCYNTTWSEWSPSTKWHNSYREPFNPAFLYKVVGAADYKDDDDKAAHHHHHHHHHH
Take B13: in test [3], the % inhibition at 1000nM is 34%.
